Experimental data published in paper PMC7040854.
pKd: −log10 of the molar value.

Columns and labels:
[1] = biological target: FGFR2K^R678G (human); assay: NMR CPMG relaxation dispersion
[2] = biological target: FGFR2K^R678E (human); assay: NMR CPMG relaxation dispersion

Substance	pKd [1]	pKd [2]
FGFR2K^R678G (domain or fragment)	1.26	–
FGFR2K^R678E (domain or fragment)	–	2.10
